This note sets out measurements from patent US20190309056A1 (VIB VZW, published 2019).

Where a chain is given by its changes, count along the chain named.

Assay [1] has as its target T1, recombinant human Macrophage Migration Inhibitory Factor (MIF 2-115) (human, UniProt P14174 2-115).
T1 construct: rhMIF bought from R&D Systems; The background describes MIF as a homotrimer but also as monomer, dimer or higher oligomers; In the cell assays (THP-1, human PBMC) the MIF is the cells' own; also called rhMIF; human MIF
As to the kind of experiment: SPR (BIAcore T200), rhMIF immobilised on CM5 chip, 1:1 Langmuir model. As to the method: Surface plasmon resonance (SPR) experiments were performed on a BIAcore T200 system (GE Healthcare). Recombinant mouse MIF (rmMIF) or rhMIF (R&D systems) was immobilized on a CM5 chip (GE Healthcare). Briefly, the carboxylated dextran matrix was activated by injection of 0.2 M N-ethyl-N′-(3-[…]) carbodiimide (EDC) and 0.05 M N-hydroxysuccinimide (NHS) at a flow rate of 5 μl/min for 7 min. A rmMIF solution of 5 μg/ml prepared in coupling buffer (50 mM sodium acetate pH 4.0) was subsequently injected until 200 R.U. was immobilised. Next, the surface immobilisation was blocked by injection of 1 M ethanolamine hydrochloride for 7 min. As a reference, the surface in another flow cell was used and treated only with EDC, NHS, and ethanolamine. Data for the rmMIF-ISVD interaction were collected in the format of a kinetic titration (27). […] Analyte injections were performed with association phases of 180 s and a dissociation phase of 600 s. This was followed by 5 pulses of 15 μl regeneration buffer (HBS+100 mM NaOH). Prior to data analysis, reference and zero concentration data were subtracted from the sensorgrams. The data were analyzed with a 1:1 Langmuir binding model (27). Data for the rhMIF-ISVD interaction were collected as described elsewhere (28) and analyzed with a 1:1 Langmuir binding model.

Assay [2] addresses T1, recombinant human Macrophage Migration …. As to the kind of experiment: SPR (summary in the discussion).

The term Kd denotes the free concentration of one partner at which half of the binding sites on the other are occupied at equilibrium, for simple one-to-one binding.

T1 sequence (P14174 2-115): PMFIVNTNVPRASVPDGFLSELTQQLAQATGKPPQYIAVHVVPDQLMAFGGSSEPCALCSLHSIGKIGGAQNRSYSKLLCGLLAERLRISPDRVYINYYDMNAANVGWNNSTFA

B1: anti-MIF ISVD C10 (VHH)
VHH: EVQLVESGGGLVQAGGSLRLSCAASGRTSSIVAIGWFRQAPGKEREFVSNIGWKFGSTVYVDSVKGRFTISKDNAKNTVYLQMNSLKPEDTAVYRCAARSDGRVYDSWGQGTQVTVSS
notes: Family II; Expressed from pAX100, purified by IMAC
Turning to B1, in assay [1], the Kd is 41.2 nM.

B2: anti-MIF ISVD D4 (VHH)
VHH: KVQLVESGGGLVQDGGSLRLSCAASGRTASIQVMGWFRQAPGKEREFVGNIGWNYGLTLYPDSVKGRFTISRDNAKNTVYLQMNNLKPEDTAVYYCAARIGTTTYDYWGQGTQVTVSS
notes: Family III; Expressed from pAX100, purified by IMAC
Turning to B2, the Kd in assay [1] was 35 nM.

B3: anti-MIF ISVD D2 (VHH)
VHH: B2 VHH with K1E, Q32H, V33T, K43Q, E46G, P61A, T104P
notes: as for B2
As to B3, the Kd in assay [1] stood at 16.5 nM.

B4: anti-MIF ISVD A2 (VHH)
VHH: B2 VHH with K1E, P61A, S63P, T103I
notes: as for B2
Take B4: the Kd in assay [1] was 2.96 nM.

B5: anti-MIF ISVD F10 (VHH)
VHH: B2 VHH with K1E, D73G, T78A
notes: as for B2
Take B5: in assay [2], the binding result is on record as “binds”.

B6: anti-MIF ISVD B5 (VHH)
VHH: EVQLVESGGGLVQAGGSLRLSCAASGRSFSNYIMGWFRQAPGKEREFVANISWNYGTTFYADSVKGRFTISGDSAKNTVYLQMTSLKPEDTAVYYCAARPVRGGRNFDYWGQGTQVTVSS
notes: Family I. Expressed from pAX100, purified by IMAC
For B6, the Kd in assay [1] was determined as 37.8 nM.

B7: anti-MIF ISVD E10 (VHH)
VHH: EVQLVESGGGSVQAGDSLRLSCAASGRTLSNSIMGWFRQAPGKEREFVANINWSGTSRLYADSVKGRFTISRDNTKSTVYLQMNSLKPEDTAIYYCAARSSTMSATDYWGQGTQVTVSS
notes: Family VII; Monovalent llama VHH expressed in E. coli from pAX100 and purified by IMAC (His-Trap) and gel filtration; also called Nb E10; monovalent E10
Consider B7, for which the Kd in assay [1] stood at 64.5 nM.

B8: anti-MIF ISVD D12 (VHH)
VHH: EVQLVESGGGLVQAGGSLRLSCAASGRTISSYIVGWFRQAPGKEREFVANIGWSGSMPLYADSVKGRFTIFRDNAKNTVYLEMNKLKPEDTAVYYCAARGAGQLTNDYWGQGTQVTVSS
notes: Family VI; Expressed from pAX100, purified by IMAC
In the case of B8, the Kd in assay [1] was 166 nM.

B9: anti-MIF ISVD E5 (VHH)
VHH: EVQLVESGGGLVHAGGSLRLSCAASGRTFSSYFMGWFRQAPGKAREFVANINFSGGTTVYASSVKGRFTISRDNSKNTVYLQMNSVKPEDTAVYYCVARGLTQDYDYWGQGTQVTVSS
notes: Family V. Expressed from pAX100, purified by IMAC; also called Nb E5
Consider B9, for which, in assay [1], the dissociation constant (Kd) was found to be 9.41 nM.

B10: anti-MIF ISVD H9 (VHH)
VHH: B9 VHH with F29S, S31T, M83L, V97S, T102N, D104E, Y107F
notes: Family V. Expressed from pAX100, purified by IMAC
As to B10, the Kd in assay [1] worked out at 80.3 nM.

B11: anti-MIF ISVD H5 (VHH)
VHH: EVQLVESGGGLVQPGGSLRLSCVASGFTFRTYAMSWVRQAPGKGSEWVSTINNGGGVTGYADSVEGRFTISRDNAKNTLYLQMNSLKPEDTAVYYCAKGTSRGQGTQVTVSS
notes: Family IV; Expressed from pAX100, purified by IMAC
As for B11, the equilibrium dissociation constant (Kd) in assay [1] stood at 27.5 nM.
